Test results published in patent US20200276130.

What was measured:
[1] = molecular target: GST-PKM1 recombinant protein, P14618
[2] = molecular target: GST-PKM2 recombinant protein, P14618
Sequence of GST-PKM2 recombinant protein, P14618 (P14618 whole entry, looked up): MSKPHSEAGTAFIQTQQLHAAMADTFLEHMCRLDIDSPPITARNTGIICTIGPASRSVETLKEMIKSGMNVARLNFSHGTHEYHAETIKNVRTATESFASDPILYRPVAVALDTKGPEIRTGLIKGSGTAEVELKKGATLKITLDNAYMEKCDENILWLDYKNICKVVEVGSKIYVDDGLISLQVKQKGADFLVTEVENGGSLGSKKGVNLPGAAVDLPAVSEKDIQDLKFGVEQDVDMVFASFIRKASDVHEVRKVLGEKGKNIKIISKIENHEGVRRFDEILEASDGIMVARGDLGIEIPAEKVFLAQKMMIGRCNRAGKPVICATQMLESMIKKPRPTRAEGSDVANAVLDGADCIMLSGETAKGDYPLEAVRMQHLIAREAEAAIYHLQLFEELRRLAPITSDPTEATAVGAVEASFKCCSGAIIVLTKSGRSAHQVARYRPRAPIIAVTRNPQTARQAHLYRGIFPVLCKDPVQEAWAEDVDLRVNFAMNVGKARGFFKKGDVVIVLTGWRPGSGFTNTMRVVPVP

Sequence of GST-PKM1 recombinant protein, P14618 (P14618 other isoform, or with tags, fused parts or gaps): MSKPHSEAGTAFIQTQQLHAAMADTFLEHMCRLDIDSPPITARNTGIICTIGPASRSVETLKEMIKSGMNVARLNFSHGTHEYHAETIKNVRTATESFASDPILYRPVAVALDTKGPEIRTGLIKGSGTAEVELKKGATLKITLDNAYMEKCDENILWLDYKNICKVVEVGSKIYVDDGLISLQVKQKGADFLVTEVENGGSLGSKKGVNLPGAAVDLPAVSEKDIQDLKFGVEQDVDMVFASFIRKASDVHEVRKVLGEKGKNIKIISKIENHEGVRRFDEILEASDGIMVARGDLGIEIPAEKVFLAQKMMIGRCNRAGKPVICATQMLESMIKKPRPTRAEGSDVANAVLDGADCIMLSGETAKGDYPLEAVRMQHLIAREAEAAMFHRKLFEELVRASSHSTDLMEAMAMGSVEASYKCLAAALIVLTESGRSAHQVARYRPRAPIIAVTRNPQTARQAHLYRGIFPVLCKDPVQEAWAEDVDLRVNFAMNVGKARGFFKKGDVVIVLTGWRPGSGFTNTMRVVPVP

B1: recombinant CARM1 used in the in vitro methylation assays (protein)
chain: MAAAAAAVGPGAGGAGSAVPGGAGPCATVSVFPGARLLTIGDANGEIQRHAEQQALRLEVRAGPDSAGIALYSHEDVCVFKCSVSRETECSRVGKQSFIITLGCNSVLIQFATPNDFCSFYNILKTCRGHTLERSVFSERTEESSAVQYFQFYGYLSQQQNMMQDYVRTGTYQRAILQNHTDFKDKIVLDVGCGSGILSFFAAQAGARKIYAVEASTMAQHAEVLVKSNNLTDRIVVIPGKVEEVSLPEQVDIIISEPMGYMLFNERMLESYLHAKKYLKPSGNMFPTIGDVHLAPFTDEQLYMEQFTKANFWYQPSFHGVDLSALRGAAVDEYFRQPVVDTFDIRILMAKSVKYTVNFLEAKEGDLHRIEIPFKFHMLHSGLVHGLAFWFDVAFIGSIMTVWLSTAPTEPLTHWYQVRCLFQSPLFAKAGDTLSGTCLLIANKRQSYDISIVAQVDQTGSKSSNLLDLKNPFFRYTGTTPSPPPGSHYTSPSENMWNTGSTYNLSSGMAVAGMPTAYDLSSVIASGSSVGHNNLIPLANTGIVNHTHSRMGSIMSTGIVQGSSGAQGSGGGSTSAHYAVNSQFTMGGPAISMASPMSIPTNTMHYGS
in vitro methylation assay (3H-SAM, autoradiography) [1]: only PKM2, but not PKM1, can be methylated by CARM1 in in vitro methylation assays | in vitro methylation assay (3H-SAM, autoradiography) [2]: only PKM2, but not PKM1, can be methylated by CARM1 in in vitro methylation assays
